Publication PMC12455937, “Interaction of West Nile virus NS5 with orthoflavivirus SLA RNAs and their effects on viral replication and inhibition” (Journal of Virology, 2025)
Values joined by “and” are separate entries in the source; they are usually repeats but may differ in a detail not shown here. Identical values can stand only once.

Biological target: the molecule itself
Assay: mass photometry; NS5 alone at 20 nM in MP buffer (50 mM HEPES, pH 7.5, 40 mM NaCl, 10 mM MgCl2); TwoMP (Refeyn); DENV NS3 and NS5 as mass standards; oligomers assigned from peak masses

B1: Full-length lineage II WNV NS5 (enzyme)
chain: not shown
notes: also called full-length NS5; viral polymerase
stoichiometry N: 2 and 3 and 4
